Data on 1 substance can be found in PMC10873206.

Some results are limits rather than exact numbers.

The experiment concerns the target UBE2R1 E108A (human) (UniProt P49427).

Sequence of UBE2R1 E108A (human) (P49427 whole entry E108A): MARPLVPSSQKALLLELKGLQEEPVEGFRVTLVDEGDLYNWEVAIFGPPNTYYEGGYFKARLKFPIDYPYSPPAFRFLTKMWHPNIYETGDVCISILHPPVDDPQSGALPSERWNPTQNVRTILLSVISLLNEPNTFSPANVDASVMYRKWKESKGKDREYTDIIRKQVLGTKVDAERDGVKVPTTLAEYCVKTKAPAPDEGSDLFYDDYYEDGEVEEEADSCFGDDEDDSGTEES

As for “D77 acceptor ubiquitin R54D (from UniProt P0CG48 1-76) (natural protein)”, the Km of unanchored D77 acceptor ubiquitin for UBE2R1 in di-ubiquitin synthesis (K48R donor ubiquitin, neddylated CUL2–RBX1 WT); saturation not reached, top concentration given was above 800 µM.
